According to patent US11396668B2, “Methods of producing nor-opioid and nal-opioid benzylisoquinoline alkaloids” (priority 2016, dated 2022):

System: oxycodone
Test: Oxycodone 3-O-demethylase activity of CODM in crude yeast cell lysate
Type: biochemical, yeast strain W303
Settings: 0.1 mM oxycodone, 10 mM 2-oxoglutarate, 30° C., 3 h, LC-MS
Description: FIG. 29 illustrates the functional expression of CODM, in accordance with embodiments of the invention. In particular, FIG. 29 illustrates the functional expression of CODM with oxycodone 3-O-demethylase activity in yeast. The yeast codon-optimized CODM gene was integrated into the genome of yeast strain W303 and cultured in synthetic complete media for 16 hours. The parent W303 strain was also cultured in synthetic complete media for 16 hours as a no-enzyme control. The cells were pelleted and washed with 1 mL breaking buffer (100 mM Tris-HCl pH 7.5, 10% glycerol, 14 mM 2-mercaptoethanol, lx protease inhibitor). Cells were resuspended in 200 μL breaking buffer and lysed by glass bead disruption. The crude cell lysates were incubated with 10 mM ascorbic acid, 0.5 mM iron(II) sulfate, 0.1 mM oxycodone as substrate and 10 mM 2-oxoglutarate as cosubstrate in a total volume of 100 μL. 4 mM DTT was also added as a reducing agent to keep iron in the Fe^2+ state. The reaction was incubated at 30° C. for 3 h and quenched by diluting it 1:1 in ethanol with 0.1% acetic acid. […] The mass-charge ratio (m/z 302), retention time, and mass spectrum of oxymorphone produced by the yeast strain matched that of a purchased oxymorphone standard (see FIG. 29).

B1: CODM: codeine O-demethylase, yeast codon-optimized gene integrated into yeast strain W303 (protein, listed as Papaver somniferum)
chain: METPILIKLGNGLSIPSVQELAKLTLAEIPSRYTCTGESPLNNIGASVTDDETVPVIDLQNLLSPEPVVGKLELDKLHSACKEWGFFQLVNHGVDALLMDNIKSEIKGFFNLPMNEKTKYGQQDGDFEGFGQPYIESEDQRLDWTEVFSMLSLPLHLRKPHLFPELPLPFRETLESYLSKMKKLSTVVFEMLEKSLQLVEIKGMTDLFEDGLQTMRMNYYPPCPRPELVLGLTSHSDFSGLTILLQLNEVEGLQIRKEERWISIKPLPDAFIVNVGDILEIMTNGIYRSVEHRAVVNSTKERLSIATFHDSKLESEIGPISSLVTPETPALFKRGRYEDILKENLSRKLDGKSFLDYMRM
oxymorphone generated from oxycodone (3-O-demethylation): detected by LC-MS
